From patent US20260001914A1, “MACROCYCLIC PEPTIDES TARGETING KRAS” (Merck Sharp & Dohme LLC, priority 2022, published 2026)

Legend:
[1] = molecular target: KRAS-G12D in AsPC-1 cells (UniProt P01116); experiment: cell-based or functional assay
[2] = molecular target: Biotin-labeled KRAS-G12D protein (UniProt P01116-2 1-169, limits assumed, biotin label (site not stated); loaded with BODIPY-GDP); experiment: cell-based or functional assay

| Substance | AlphaScreen @18 h, EC50 [1] | SOS assay EC50 [2] |
| --- | --- | --- |
| cyclo(FLac-NMeA-3Pal-NvaF-Phe2F-Nle-NMe3Pal-amBCP) (peptide) | > 50800 nM | 35.1 nM |
| cyclo(FLac-NMeA~PyrimAla-rF2Cba-Phe2F-Nle-NMe3Pal-amBCP) isomer 2 (peptide) | > 50800 nM | 8190 nM |
| cyclo(FLac-AlaCN-3Pal-Nle-Phe2F-Nle-NMe3Pal-amBCP) (peptide) | > 50800 nM | 3750 nM |
| cyclo(FLac-NMeNvaF2-PyrimAla-cPrA-Phe2F-hL-NMeF-amBCP) (peptide) | 1770 nM | 173 nM |
| cyclo(FLac-NMeA-PyrimAla-Nle-Phe2F-Nle-NMePhe3Me-amBCP) (peptide) | 256 nM | 6.03 nM |
| cyclo(FLac-NMeNvaF-3Pal-Nle-Phe2F-Nle-NMe3Pal-amBCP) (peptide) | 20700 nM | 297 nM |
| cyclo(FLac-NMeA-PyrimAla-hL-Phe2F-Nle-NMe3Pal-amBCP) (peptide) | > 50800 nM | 228 nM |
| cyclo(FLac-R-3Pal-cBuA-TyrOMe-Ahp-NMeF-amBCP) (peptide) | > 50800 nM | 10.8 nM |
| cyclo(FLac-NMeA-PyrimAla-Nle-Phe2F-Nlecalken3Pal-amBCP) (peptide) | 11200 nM | 590 nM |
| cyclo(FLac-NMeNvalmid-3Pal-Nle-Phe2F-Nle-NMeF-amBCP) (peptide) | 5160 nM | 28.9 nM |
| cyclo(FLac-NMeA-PyrimAla-Leu3F-Phe2F-hL-NMeF-amBCP) (peptide) | 7730 nM | 114 nM |
| cyclo(FLac-NMeA-PyrimAla-rF2Cba-Phe2F-Nle-NMe3Pal-amBCP) isomer 1 (peptide) | > 50800 nM | 236 nM |
| cyclo(FLac-NMeA-PyrimAla-cPrA-Phe2F-Hag-NMeHag-amBCP) (peptide) | 41200 nM | 225 nM |
| cyclo(FLac-nMeSMe-3Pal-Nle-Phe2F-Nle-NMe3Pal-amBCP) (peptide) | > 50800 nM | 6410 nM |
| cyclo(FLac-NMeA-PyrimAla-NvaF-Phe2F-hL-NMeF-amBCP) (peptide) | 2260 nM | 7.79 nM |
| cyclo(Y-NMeA-3Pal-Nle-Phe2F-Nle-NMe3Pal-amBCP) (peptide) | 46400 nM | 440 nM |
| cyclo(FLac-NMeA-PyrimAla-Nle-Phe2F-Nle-NMe3Pal-amBCP) (peptide) | 13400 nM | 33.6 nM |
| cyclo(CPhe-NMeA-PyrimAla-cPrA-Phe2F-Nle3F2-NMeF-MeOximamBCP) isomer 2 (peptide) | 128 nM | 1.7 nM |
| cyclo(FLac-NMeA-3Pal-Nle-Phe2F-Nle-NMeF-amBCP) (peptide) | 1440 nM | 50.3 nM |
| cyclo(FLac-NMeNvalmid-PyrimAla-Nle-F2FLac-Nle-NMe3Pal-amBCP) (peptide) | > 50800 nM | 1160 nM |
| cyclo(FLac-NMeS-PyrimAla-Nle-Phe2F-Nle-NMe3Pal-amBCP) (peptide) | > 50800 nM | 375 nM |
| cyclo(FLac-NMeA-3Pal-Nle-Phe2F-hL-NMe3Pal-amBCP) (peptide) | 4650 nM | 2.17 nM |
| cyclo(FLac-NMeA-PyrimAla-Nle-Phe2F-NleF-NMeF-amBCP) (peptide) | 2330 nM | 10.1 nM |
| cyclo(F-NMeA-3Pal-cBuA-TyrOMe-Ahp-NMeF-aMeC1-C1Ac) (peptide) | > 50800 nM | 146 nM |
| cyclo(FLac-NMeA-4F3Pal-Nle-Phe2F-Nle-NMe3Pal-amBCP) (peptide) | 11800 nM | 18.7 nM |
| cyclo(FLac-NMeA-PyrimAla-NleF-Phe2F-NleF-NMeF-amBCP) (peptide) | 3720 nM | 37.4 nM |
| cyclo(FLac-NMeA-PyrimAla-Nle-Phe2F-hL-NMeF-amBCP) (peptide) | 1110 nM | 7.87 nM |
| cyclo(FLac-NMeA-PyrimAla-cPeA-Phe2F-Nle-NMe3Pal-amBCP) (peptide) | 17400 nM | 22.3 nM |

Continued, values first:

| AlphaScreen @18 h, EC50 [1] | SOS assay EC50 [2] | Substance |
| --- | --- | --- |
| > 50800 nM | 4.38 nM | cyclo(FLac-NMeA-PyrimAla-L-Phe2F-Nle-NMe3Pal-amBCP) (peptide) |
| 168 nM | 1.95 nM | cyclo(FLac-NMeA-PyrimAla-cPrA-Phe2F-hL-NMeF-amBCP) (peptide) |
| 285 nM | 4.13 nM | cyclo(FLac-NMeA-PyrimAla-cPeA-Phe2F-hL-NMeF-amBCP) (peptide) |
| > 50800 nM | 154 nM | cyclo(FLac-NMeA-3Pal-Nle-Phe2F-Nva-NMe3Pal-amBCP) (peptide) |
| > 50800 nM | 2890 nM | cyclo(4Me3Pal-NMeA-3Pal-Nle-Phe2F-Nle-NMe3Pal-amBCP) (peptide) |
| > 50800 nM | 997 nM | cyclo(FLac-NMeA-4F3Pal-Nle-Phe2F-Nva-NMeF-amBCP) (peptide) |
| > 50800 nM | 101 nM | cyclo(FLac-NMeNvalmid-4F3Pal-Nle-Phe2F-Nle-NMeF-amBCP) isomer 1 (peptide) |
| 615 nM | 2 nM | cyclo(FLac-NMeA-PyrimAla-cPrA-Phe2F-hcPrA-NMeF-amBCP) (peptide) |
| > 50800 nM | 62.8 nM | cyclo(FLac-NMeNvalmid-4CF33Pal-Nle-Phe2F-Nle-NMeF-amBCP) isomer 2 (peptide) |
| > 50800 nM | 224 nM | cyclo(F-NMeR-3Pal-Nle-TyrOMe-LysN3-NMeF-tamcPr) (peptide) |
| > 50800 nM | 12.8 nM | cyclo(F-R-3Pal-Nle-Phe2F-Nle-NMeF-aMeC1-C1Ac) (peptide) |
| 6120 nM | 435 nM | cyclo(FLac-NMeDabN3-4CF33Pal-Nle-Phe2F-Nle-NMe3Pal-amBCP) (peptide) |
| > 50800 nM | 1460 nM | cyclo(INal-R-Phe4CH2NH2-Nle-Y-Nle-NMeF-daMeC-C1Ac) (peptide) |
| 734 nM | 12.2 nM | cyclo(FLac-NMeA-PyrimAla-Nle-Phe2F-Nle-NMePhe3F-amBCP) (peptide) |
| 886 nM | 37.9 nM | cyclo(FLac-NMeA-3Pal-cBuA-TyrOMe-Ahp-NMeF-amBCP) (peptide) |
| 42800 nM | 99.9 nM | cyclo(Phe4F-NMeA-3Pal-Nle-Phe2F-Nle-NMe3Pal-amBCP) (peptide) |
| > 50800 nM | 69.7 nM | cyclo(FLac-NMeNvalmid-4F3Pal-Nle-Phe2F-Nle-NMeF-amBCP) isomer 2 (peptide) |
| 223 nM | 19.1 nM | cyclo(FLac-NMeA-PyrimAla-Nle-Phe2F-Nle-NMePhe4Me-amBCP) (peptide) |
| 4180 nM | 31 nM | cyclo(FLac-NMeA-PyrimAla-cPrA-3Pal2F-hL-NMeF-amBCP) (peptide) |
